Test results reported in patent publication US9777056B2, “Immunotherapy for clearing pathological tau conformers” (New York University, priority 2006, dated 2017).

Experiment: Thioflavin T (ThT) in vitro fibrillogenesis assay
Assay type: physicochemical
Conditions: 0.1 M Tris pH 7.4, incubated for different times
Method: ThT binds specifically to β-sheet structure and this binding produces a shift in its emission spectrum and a fluorescent enhancement proportional to the amount of amyloid formed. Following the incubation period, 50 mM glycine, pH 9.2, and 2 μM ThT was added to a final volume of 200 μl containing 3 μg of the immunogen or the P301L tau peptide (with or without equimolar concentration of antibodies purified from the immunized mice). Fluorescence was measured at excitation 435 nm and emission 485 nm on a SpectraMax M2 multi-detection plate reader (Molecular Devices, Sunnyvale, Calif.).

Substance: Aβ1-42: amyloid-β control peptide used for comparison in ThT and MTT assays
- fibril formation (fibrillogenicity), Thioflavin T fluorescence: very fibrillogenic
